According to IntAct's records for PubMed 12393858:

Target: ipp2_human PPP1R2 (UniProt P41236)
Sequence (P41236 whole entry): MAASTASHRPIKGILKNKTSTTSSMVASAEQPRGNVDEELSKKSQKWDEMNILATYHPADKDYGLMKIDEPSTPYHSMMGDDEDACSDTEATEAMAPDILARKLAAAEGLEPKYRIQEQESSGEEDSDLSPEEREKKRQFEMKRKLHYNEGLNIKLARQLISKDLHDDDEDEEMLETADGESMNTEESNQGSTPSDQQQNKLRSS

Substance: Serine/threonine-protein kinase LMTK2 (Homo sapiens), Q8IWU2 V1356A;F1358A
- effect of a mutation on the interaction: disrupting interaction
